In patent publication US20260035459A1 (AVA LIFESCIENCE, published 2026) one finds Kd data, which are given here for eight molecules.

The chains are these.
B1: humanized anti-IGLV3-21^R110 antibody HC6-LC6 (antibody, human IgG1, V domains shown)
VH: QVQLQESGPGLVKPSETLSLTCTVSGFSLTSYGIHWIRQSPGRGLEWIGVIWRGGGTDSNAAFMSRVTISVDTSKSQVSLKLGSVTAADTAIYYCARSRYDEEESMNYWGQGTSVTVSS
VL: EIVLTQSPSSLSASVGDSVTITCRASGNIHSYLAWYQQKPGKAPKLLIYNAKTLADGVPSRFSGSGSGTQYTLTISSLQPEDFATYYCQHFWNTPPTFGAGTKLELK
notes: VH fused to a human IgG1 constant domain and VL to a human Ig kappa constant domain; Expressed in CHO cells
B2: humanized anti-IGLV3-21^R110 antibody HC6-LC8 (antibody, human IgG1, V domains shown)
VH: QVQLQESGPGLVKPSETLSLTCTVSGFSLTSYGIHWIRQSPGRGLEWIGVIWRGGGTDSNAAFMSRVTISVDTSKSQVSLKLGSVTAADTAIYYCARSRYDEEESMNYWGQGTSVTVSS
VL: EIVLTQSPATLSLSPGERATLSCRASGNIHSYLAWYQQKPGQAPRLLIYNAKTLADGIPARFSGSGSGTDYTLTISSLEPEDFASYYCQHFWNTPPTFGAGTKLELK
notes: Expressed in CHO cells
B3: humanized anti-IGLV3-21^R110 antibody HC7-LC9 (antibody, human IgG1, V domains shown)
VH: QVQLQESGPGLVKPSETLSLTCTVSGFSLTSYGIHWIRQSPGRGLEWIGVIWRGGGTDSNAAFMSRITISRDTSKTQVSLKLGSVTAADTAIYYCARSRYDEEESMNYWGQGTSVTVSS
VL: EIVLTQSPGTLSLSPGERATLSCRASGNIHSYLAWYQQKPGQAPRLLIYNAKTLADGIPDRFSGSGSGTDYTLTISRLEPEDFAVYYCQHFWNTPPTFGAGTKLELK
notes: Expressed in CHO cells
B4: humanized anti-IGLV3-21^R110 antibody HC6-LC9 (antibody, human IgG1, V domains shown)
VH: QVQLQESGPGLVKPSETLSLTCTVSGFSLTSYGIHWIRQSPGRGLEWIGVIWRGGGTDSNAAFMSRVTISVDTSKSQVSLKLGSVTAADTAIYYCARSRYDEEESMNYWGQGTSVTVSS
VL: EIVLTQSPGTLSLSPGERATLSCRASGNIHSYLAWYQQKPGQAPRLLIYNAKTLADGIPDRFSGSGSGTDYTLTISRLEPEDFAVYYCQHFWNTPPTFGAGTKLELK
notes: Expressed in CHO cells
B5: humanized anti-IGLV3-21^R110 antibody HC7-LC6 (antibody, human IgG1, V domains shown)
VH: QVQLQESGPGLVKPSETLSLTCTVSGFSLTSYGIHWIRQSPGRGLEWIGVIWRGGGTDSNAAFMSRITISRDTSKTQVSLKLGSVTAADTAIYYCARSRYDEEESMNYWGQGTSVTVSS
VL: EIVLTQSPSSLSASVGDSVTITCRASGNIHSYLAWYQQKPGKAPKLLIYNAKTLADGVPSRFSGSGSGTQYTLTISSLQPEDFATYYCQHFWNTPPTFGAGTKLELK
notes: Expressed in CHO cells
B6: humanized anti-IGLV3-21^R110 antibody HC6-LC7 (antibody, human IgG1, V domains shown)
VH: QVQLQESGPGLVKPSETLSLTCTVSGFSLTSYGIHWIRQSPGRGLEWIGVIWRGGGTDSNAAFMSRVTISVDTSKSQVSLKLGSVTAADTAIYYCARSRYDEEESMNYWGQGTSVTVSS
VL: QIQLTQSPSFLSASVGDSVTITCRASGNIHSYLAWYQQKPGKAPQLLIYNAKTLADGVPSRFSGSGSGTEYTLTISSLQPEDFATYYCQHFWNTPPTFGAGTKLELK
notes: Expressed in CHO cells
B7: humanized anti-IGLV3-21^R110 antibody HC7-LC8 (antibody, human IgG1, V domains shown)
VH: QVQLQESGPGLVKPSETLSLTCTVSGFSLTSYGIHWIRQSPGRGLEWIGVIWRGGGTDSNAAFMSRITISRDTSKTQVSLKLGSVTAADTAIYYCARSRYDEEESMNYWGQGTSVTVSS
VL: EIVLTQSPATLSLSPGERATLSCRASGNIHSYLAWYQQKPGQAPRLLIYNAKTLADGIPARFSGSGSGTDYTLTISSLEPEDFASYYCQHFWNTPPTFGAGTKLELK
notes: Expressed in CHO cells
B8: humanized anti-IGLV3-21^R110 antibody HC7-LC7 (antibody, human IgG1, V domains shown)
VH: QVQLQESGPGLVKPSETLSLTCTVSGFSLTSYGIHWIRQSPGRGLEWIGVIWRGGGTDSNAAFMSRITISRDTSKTQVSLKLGSVTAADTAIYYCARSRYDEEESMNYWGQGTSVTVSS
VL: QIQLTQSPSFLSASVGDSVTITCRASGNIHSYLAWYQQKPGKAPQLLIYNAKTLADGVPSRFSGSGSGTEYTLTISSLQPEDFATYYCQHFWNTPPTFGAGTKLELK
notes: Expressed in CHO cells

T1 sequence (heavy, as listed by the source limits assumed, chain 1 of 2): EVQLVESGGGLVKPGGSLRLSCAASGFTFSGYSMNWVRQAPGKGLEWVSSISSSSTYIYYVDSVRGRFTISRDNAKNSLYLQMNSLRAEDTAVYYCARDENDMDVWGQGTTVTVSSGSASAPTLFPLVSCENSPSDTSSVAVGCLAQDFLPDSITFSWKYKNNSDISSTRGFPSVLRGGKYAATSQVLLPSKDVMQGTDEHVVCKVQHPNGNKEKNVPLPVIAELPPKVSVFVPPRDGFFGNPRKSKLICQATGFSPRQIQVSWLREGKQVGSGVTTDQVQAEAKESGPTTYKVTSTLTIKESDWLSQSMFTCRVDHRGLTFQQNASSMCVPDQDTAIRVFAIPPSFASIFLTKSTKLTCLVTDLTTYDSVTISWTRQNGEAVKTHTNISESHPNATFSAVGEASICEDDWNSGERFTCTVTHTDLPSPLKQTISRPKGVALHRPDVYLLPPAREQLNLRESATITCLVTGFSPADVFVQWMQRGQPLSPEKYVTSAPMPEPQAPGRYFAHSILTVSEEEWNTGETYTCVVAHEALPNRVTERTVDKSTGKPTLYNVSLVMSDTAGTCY
T1 sequence (light, as listed by the source limits assumed, chain 2 of 2): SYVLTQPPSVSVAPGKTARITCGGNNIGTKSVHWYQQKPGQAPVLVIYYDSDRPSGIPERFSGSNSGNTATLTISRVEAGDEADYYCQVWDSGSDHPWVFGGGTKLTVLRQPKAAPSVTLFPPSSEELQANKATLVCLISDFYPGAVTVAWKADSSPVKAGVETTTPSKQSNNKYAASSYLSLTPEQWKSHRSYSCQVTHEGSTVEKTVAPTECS

The test has as its target T1, soluble recombinant IGLV3-21^R110-harboring B-cell receptor, monomeric human IgM (170.5 kDa) (human).
T1 construct: Made in 293-HEK cells by transient expression and used as the analyte in BLI; also called soluble IGLV3-21^R110 B-cell receptor; soluble form of the IGLV3-21^R110 BCR
Nature of the test: BLI (Fortebio Octet), antibody captured by anti-human IgG Fc, soluble BCR (monomeric IgM) as analyte, 1:1 model. An excerpt: In brief, to define the binding affinities of the antibodies to the IGLV3-21^R110-harboring B-cell receptor, a soluble recombinant version of the BCR (170.5 kDa; sequence according to SEQ ID NO: 52 for HC and 53 for LC) was produced in 293-HEK cell line as monomeric human IgM by transient expression using a protocol described in section 1.1 of this Example, and binding to immobilized anti-IGLV3-21^R110 antibodies was monitored by Bio-Layer Interferometry (BLI) on a Fortebio Octet instrument (Satorius). Kinetic assays were performed by first immobilizing the humanized anti IGLV3-21R110 antibodies onto biosensors through an indirect capturing reagent, anti-human lgG Fc antibody. Anti IGLV3-21^R110 antibodies were loaded at a concentration of 0.01875 μg/ml to generate an anti IGLV3-21^R110 antibody capture level of between 0.30 and 0.34 nm. A 9 nM BCR-fragment solution in running buffer (PBS, 0.02% Tween20, 0.1% BSA, 0.05% sodium acide) was prepared and serial diluted 1:3 to obtain 7 concentrations from 9 to 0.012 nM (9 nM, 3 nM, 1 nM, 0.333 nM, 0.111 nM, 0.037 nM, and 0.012 nM). The anti IGLV3-21 R110 antibody capture biosensors were then submerged in wells containing the different concentrations of the soluble BCR-fragment for 900 seconds (association stage) followed by a dissociation step of 1200 seconds in running buffer. Steps were performed at a constant shake speed of 1000 rpm. All reagents were used as described by the manufacturer. Sensorgrams were generated after double reference correction (buffer and blank sensors) to compensate for both the natural dissociation of the capture anti IGLV3-21^R110 antibody and also non-specific binding of the soluble BCR-fragment to the sensor surface. […] (KD) were calculated based on the ratio of association (ka) and dissociation rate (kd) constants, obtained by fitting sensorgrams with a first order 1:1 binding model using the Fortebio Data Analysis software (Satorius).
On the technique in general: In BLI a coated tip is dipped into the sample, and binding shifts an interference pattern.
As for B1, the Kd came out at 211 pM.
The figure for B2 is 277 pM; for B3 it is 313 pM.
The figure for B4 is 291 pM; for B5 it is 175 pM.
To B6 belongs 347 pM.
In the case of B7, the Kd turned out to be 249 pM.
The figure for B8 is 269 pM.

For orientation: Kd means the equilibrium constant for the complex coming apart.
